What was measured:
[1] = tested on: AGT receptor on CRL-7548 placental cells; test: Competitive binding study (unlabeled AGT added at zero time); parameters: species or system human; details: prior addition of 100-fold excess of unlabeled AGT, FIG. 2
Protocol: (§1) Cell Culture: CRL-7548 placental cells obtained from American Type Culture Collection were cultured in 89% Dulbecco's modification of Eagle medium (DEME) (Cellgro, Herndon, Va.), 10% fetal bovine serum (FBS) (Sigma, St. Louis, Mo.), 1% penicillin-streptomycin (5,000 U/ml and 5,000 μg/ml) (Cellgro) in a humidified atmosphere of 5.0% CO2 and […] at 37° C. The cells were passed in FBS-free DEME before experimentation, seeded in 35 mm diameter plastic wells and cultured for two days to reach about 80-90% confluence.
(§2) Purified AGT was labeled with ^125I using iodobeads Pierce, Rockford, Ill.), 5 mCi/0.5 mg AGT in 0.1 mol/L sodium phosphate buffer, pH 6.0. The bound isotope was separated from the free isotope by gel filtration on Sephadex G-25.
(§3) Labeled AGT, 3 μg, was added to each well containing 1 ml DEME and 2-3×10^4 cells. The cells were harvested at 5 min, and 2, 4, 8, 16 and 24 h, washed five times with DEME, lysed in a buffer containing 0.1 mol/L Tris, 2 mmol/L EDTA, 1% Triton-X 100, 1 μmol/L DTT, pH 7.8, and the radioactivity of the whole lysate measured. Each experiment contained two duplicates and the reported values are the mean of two experiments. The results are presented graphically in FIG. 1
This Example was carried out as described in Example 1, except that a 100-fold excess of unlabeled AGT was added at zero time. The cells were harvested at 5 min, and 4, 8 and 24 h. […]

CRL-7459 fibroblasts = test: AGT uptake in other placental cell lines; type: cell-based; details: fibroblasts from human placenta at 40 weeks gestation (CRL-7459)
Excerpt: (§4) The cells used in Examples 1-4 are fibroblasts originally derived from a human placenta obtained at 5 months gestation. Binding studies were also done with fibroblasts derived from a human placenta obtained at 37 weeks gestation (CRL-7458) and with fibroblasts derived from a human placenta at 40 weeks gestation (CRL-7459). These cells also took up AGT.

CRL-7458 fibroblasts = test: AGT uptake in other placental cell lines; type: cell-based; details: fibroblasts from human placenta at 37 weeks gestation (CRL-7458)
Excerpt: as §4

[2] = tested on: AGT receptor on CRL-7548 placental cells; test: Competitive displacement study (unlabeled AGT added at 8 h); type: binding, human
Protocol: as §1, §2, §3
[…] The cells were harvested at 5 min and at 2 intervals through 18 h.

CRL-7548 placental cells = test: Acid wash study (surface-bound versus internalized AGT); type: cell-based, human; details: for bound AGT removed from the cells by acid wash: 0.2 mol/L acetic acid, 0.5 mol/L NaCl, pH 2.5, 4° C., at 8 h
Protocol: as §1, §2, §3
This Example was carried out as described in Example 1. At 8 h, the cells in one set of duplicate wells were washed five times with DEME. Another set of duplicate samples were incubated with 0.2 mol/L acetic acid, 0.5 mol/L NaCl, pH 2.5, on ice (4° C.) for 6 min, and then washed five times with the acid wash. The control duplicates and the acid-washed duplicates were lysed and radioactivity was measured.

[3] = tested on: AGT receptor on CRL-7548 placental cells; test: AGT binding: 125I-labeled AGT bound by placental-derived cells; parameters: species or system human; details: 3 μg labeled AGT per well, 2-3×10^4 CRL-7548 cells, FIG. 1
Protocol: as §1
The AGT used in the Examples was purified from human plasma as described in Tewksbury (1983) Fed. Proc. 42:2724-2728; and Tewksbury et al. (1981) Biochem. Biophys. Res. Commun. 99:1311-1315. The specific Ang I content was 20 μg Ang I/mg protein. The theoretical value is 21 μg Ang I/mg protein.
as §2
as §3, with “Each experiment contained two duplicates and the reported values are the mean of two experiments. The results are presented graphically in FIG. 1” left out

[4] = from displacement by unlabeled AGT

Molecule	decrease in maximal binding of 125I-AGT [1] [%]	AGT uptake (CRL-7459 fibroblasts)	AGT uptake (CRL-7458 fibroblasts)	bound 125I-AGT displaced ([2]; excess of unlabeled AGT added, FIG. 3) [%]	share of AGT bound to an AGT-specific receptor [2, 4] [%]	share of total binding attributed to nonspecific binding [2, 4]	bound AGT removed from the cells by acid wash (CRL-7548 placental cells) [%]	bound AGT internalized by the cells (CRL-7548 placental cells; inferred from acid wash at 8 h)	time to saturation of binding by placental-derived cells [3] [h]
angiotensinogen (protein, UniProt P01019 25-476, looked up, AGT purified from human plasma; specific Ang I content 20 μg Ang I/mg protein) Angiotensinogen: DRVYIHPFHLVIHNESTCEQLAKANAGKPKDPTFIPAPIQAKTSPVDEKALQDQLVLVAAKLDTEDKLRAAMVGMLANFLGFRIYGMHSELWGVVHGATVLSPTAVFGTLASLYLGALDHTADRLQAILGVPWKDKNCTSRLDAHKVLSALQAVQGLLVAQGRADSQAQLLLSTVVGVFTAPGLHLKQPFVQGLALYTPVVLPRSLDFTELDVAAEKIDRFMQAVTGWKTGCSLMGASVDSTLAFNTYVHFQGKMKGFSLLAEPQEFWVDNSTSVSVPMLSGMGTFQHWSDIQDNFSVTQVPFTESACLLLIQPHYASDLDKVEGLTFQQNSLNWMKKLSPRTIHLTMPQLVLQGSYDLQDLLAQAELPAILHTELNLQKLSNDRIRVGEVLNSIFFELEADEREPTESTQQLNKPEVLEVTLNRPFLFAVYDQSATALHFLGRVANPLSTA	54	took up AGT	took up AGT	70	70	approximately 30%	46	about half	–
^125I-AGT: Purified AGT labeled with ^125I using iodobeads (protein, UniProt P01019 25-476, looked up, 125I label, Purified AGT labeled with ^125I using iodobeads) Angiotensinogen: DRVYIHPFHLVIHNESTCEQLAKANAGKPKDPTFIPAPIQAKTSPVDEKALQDQLVLVAAKLDTEDKLRAAMVGMLANFLGFRIYGMHSELWGVVHGATVLSPTAVFGTLASLYLGALDHTADRLQAILGVPWKDKNCTSRLDAHKVLSALQAVQGLLVAQGRADSQAQLLLSTVVGVFTAPGLHLKQPFVQGLALYTPVVLPRSLDFTELDVAAEKIDRFMQAVTGWKTGCSLMGASVDSTLAFNTYVHFQGKMKGFSLLAEPQEFWVDNSTSVSVPMLSGMGTFQHWSDIQDNFSVTQVPFTESACLLLIQPHYASDLDKVEGLTFQQNSLNWMKKLSPRTIHLTMPQLVLQGSYDLQDLLAQAELPAILHTELNLQKLSNDRIRVGEVLNSIFFELEADEREPTESTQQLNKPEVLEVTLNRPFLFAVYDQSATALHFLGRVANPLSTA	–	–	–	–	–	–	46	–	2 to 4

— patent US7250265B2, “Method of detecting and evaluating angiotensinogen receptor-modulating compounds using placental cells” (Marshfield Clinic, priority 2001, dated 2007)
